Test results published in the supplement of paper PMC10567573.

B1: HDAC6 (parent)
chain: DLMETTQYMNEGELRVLADTYDSV
B2: USP39 (parent)
chain: TLSEAYIQIWKRRDNDETNQQGA

Variants of: B1
Experiment: protein stability index of a GFP-peptide fusion (GPS, HEK-293T) (PSI 1-6); higher = more stable
Settings: c terminus: a fixed tail appended
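Also: lentivirally expressed fusions sorted by FACS into six bins by GFP to DsRed ratio, PSI derived from sequencing read proportions per bin multiplied by bin number.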

Protein stability index of substitutions, site by site:
D19: L 1.64; F 2.78; H 2.42; G 2.6; E 2.03; K 2.52; Y 1.44; Q 1.92; N 1.79; T 1.83; R 2.56
E11: N 3.13; W 1.89; H 2.78; Q 2.6; D 1.69; V 2.45; M 3.15; G 3.58; S 2.95; R 3.19; I 1.86; K 2.89; T 2.9; Y 2.43
L17: Y 1.99; R 2.97; I 2.77; M 2.01; W 2.33; P 4.47; A 2.33; C 3.03; T 3.59; Q 3.11
L2: F 3.49; N 4.32; G 3.22; W 3.31; V 1.62; Q 4.68; D 5.2; I 1.55; K 4.96; Y 3.88; E 4.57; A 2.33; P 4.8; C 3.12; T 4.52
R15: S 2.09; G 3.24; H 2.03; E 2.01; T 2.58; N 2.67; C 1.5; Q 1.76; F 2.64; A 1.77; V 2.37; Y 2.39; D 3.8
E13: T 3.84; W 2.32; N 3.96; D 3.9; K 3.69; C 3.37; F 2.66; I 2.47; M 2.65; G 4.06; Y 2.83; R 3.63
M9: S 4.68; F 3.44; C 4.25; L 3.84; P 4.55; D 4.95; V 3.6; Y 4.31; K 4.24; A 4.57; Q 4.92; E 4.61; H 4.55; R 4.28
T5: M 1.71; H 1.89; P 1.72; W 1.61; L 1.39; F 2.03; E 2.54; Q 1.99; D 4.43; S 1.96; C 2.38; Y 1.38; G 3.72; V 1.5
Y8: E 4.21; T 4.36; Q 4.22; H 4.78; I 4.19; W 1.89; K 4.56; M 4.29; D 4.62; G 4.5; A 3.88; N 4.67; C 4.07; P 5.51; R 3.66
E4: W 1.5; R 3.36; P 2.23; N 1.98; Q 3.94; C 1.74; K 2.09; T 3; V 1.83; S 1.78; M 1.31; A 2.03; F 1.48; I 1.11
D22: K 1.75; F 1; Y 2.7; A 1.27; C 2.18; S 1.55; I 2.16; V 1.74; H 2; G 1.76
T6: K 1.02; E 2.88; S 1.56; R 2.24; C 2.5; W 1.73; V 1.46; N 2.42; G 3.57; H 2.29; Q 1.94; F 1.44; P 2.3
G12: H 3.46; P 4.74; R 3.71; W 2.03; Q 4.16; E 4.82; N 4.08; M 3.18; S 3.58; Y 2.62; A 2.33; I 2.9; C 3.07
A18: T 1.94; D 2.82; G 2.86; W 1.7; K 2.18; F 1.86; P 3.97; Q 1.62; I 1.83; R 2.12; M 1.12
Q7: P 3.69; T 2.37; N 2.12; Y 2.52; K 2.12; D 2.35; E 1.97; L 2.12
L14: S 2.21; I 2.26; Q 2.28; W 2.48; E 2.07; Y 1.87; G 2.92; V 2.83; H 2.29; K 2.96; D 2.32; M 1.62; N 3.03; A 2.11
V24: R 1.86; S 1.56; E 2.01; P 2.11; G 2.1; I 2.34; N 2.77; L 2.11; T 1.63; Q 1.84; F 1.92; W 1.66; K 1.77; M 2.24; A 1.73
S23: N 2.66; K 2.03; P 1.46; R 2.14; L 1.94; H 2.37; G 2.72; V 1.63; Q 1.24; I 1.86; T 2.05
T20: L 1.04; R 3.07; I 2.91; D 2.83; K 1.96; W 1.77; M 1.62; P 1.99; Y 2.06
V16: W 3.54; F 3.61; M 3.99; L 3.27; T 4.2; N 4.06; G 4.03; P 4.81; E 4.75; Q 4.23; A 3.72
Y21: H 1.72; K 2.74; C 2.2; N 1.61; T 3.1; Q 3.21; M 1.44; G 2.66; L 1.96; F 2.24; P 2.04; S 2.26
N10: Y 3.32; G 3.14; D 3.95; V 1.8; F 1.05; A 1.98; T 2.21; Q 2.07; M 4.08; H 2.57
M3: C 1.69; G 3.84; F 2.22; T 3.15; W 2; R 3.77; V 2.2; P 4.65; E 3.74
D1: P 4.29; A 1.77; C 2.48; M 1.54; Y 2.04; W 1.55; G 3.06; V 1.25; K 2.28; T 2.27; I 3.02; L 2.05

Variants of: B2
Experiment: as above
Settings: c terminus: native

Protein stability index of substitutions, site by site:
Q21: V 1.96; T 3.59; P 4.25; W 1.84; R 1.53; Y 2.43; S 2.96
G22: I 3.35; D 3.84; Q 4.13; K 4.09; Y 3.04; M 3.1; P 3.05; N 4.12; V 3.41; R 2.83; E 4.79; H 3.63; S 3.82; C 2.83; L 3.26; W 2.45; F 3; T 3.66; A 3.77
A23: L 3.89; E 4.22; W 2.94; Y 3.58; N 4.51; M 4.35; H 4.18; D 4.15; R 2.59; T 3.73; S 3.94; F 3.71; I 3.76; Q 4.5; K 4.54; C 3.53; V 4.23; P 4.07
